B1: MYBL2 (parent)
chain: FPNRTDQQCQYRWLRVLNPDLVKG

Variants of: B1
Test: protein stability index of a GFP-peptide fusion (GPS, HEK-293T) (PSI 1-6); higher = more stable
Settings: c terminus: a fixed tail appended
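Further: lentivirally expressed fusions sorted by FACS into six bins by GFP to DsRed ratio, PSI derived from sequencing read proportions per bin multiplied by bin number.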

Question: Which protein stability index does the source give for FPNRTDQQCQNRWLRVLNPDLVKG [Y11N] here?
Answer: 2.39

Question: For FPNRTDQQCQQRWLRVLNPDLVKG [Y11Q], which protein stability index is on record?
Answer: 1.85

Question: For FPNRTDQQCQHRWLRVLNPDLVKG [Y11H], which protein stability index is on record?
Answer: 2.24

Question: For FPNRTDQQCQWRWLRVLNPDLVKG [Y11W], which protein stability index is on record?
Answer: 1.66

Question: For FPNRTDQQCQPRWLRVLNPDLVKG [Y11P], which protein stability index is on record?
Answer: 2.13

Question: With FPNRTDQQCQCRWLRVLNPDLVKG [Y11C] as the variant, how does the protein stability index read?
Answer: 2.29

Question: With FPNRTDQQCQSRWLRVLNPDLVKG [Y11S] as the variant, how does the protein stability index read?
Answer: 2.11

Question: For FPNRTDQQCQARWLRVLNPDLVKG [Y11A], which protein stability index is on record?
Answer: 2.16

Question: Which protein stability index does the source give for FPNRTDQQCQERWLRVLNPDLVKG [Y11E] here?
Answer: 3.11

Question: For FPNRTDQQCQKRWLRVLNPDLVKG [Y11K], which protein stability index is on record?
Answer: 2.23

Question: For FPNRTDQQCQFRWLRVLNPDLVKG [Y11F], which protein stability index is on record?
Answer: 1.95

Question: With FPNRTDQQCQVRWLRVLNPDLVKG [Y11V] as the variant, how does the protein stability index read?
Answer: 2.02

Question: For FPNRTDQQCQTRWLRVLNPDLVKG [Y11T], which protein stability index is on record?
Answer: 2.36

Question: Which protein stability index does the source give for FPNRTDQQCQIRWLRVLNPDLVKG [Y11I] here?
Answer: 2.04

Question: For FPNRTDQQCQGRWLRVLNPDLVKG [Y11G], which protein stability index is on record?
Answer: 2.31

Question: Which protein stability index does the source give for FPNRTDQQCQRRWLRVLNPDLVKG [Y11R] here?
Answer: 1.97

Question: Which protein stability index does the source give for FPNRTDQQCQLRWLRVLNPDLVKG [Y11L] here?
Answer: 2.1

Question: Which protein stability index does the source give for FPNRTDQQCQMRWLRVLNPDLVKG [Y11M] here?
Answer: 2.12

Question: With FPNRTDQQCQDRWLRVLNPDLVKG [Y11D] as the variant, how does the protein stability index read?
Answer: 2.91

Question: For FPNRTDQQCQYRWLRVLNRDLVKG [P19R], which protein stability index is on record?
Answer: 1.84

Question: With FPNRTDQQCQYRWLRVLNNDLVKG [P19N] as the variant, how does the protein stability index read?
Answer: 2.01

Question: With FPNRTDQQCQYRWLRVLNFDLVKG [P19F] as the variant, how does the protein stability index read?
Answer: 1.45

Question: Which protein stability index does the source give for FPNRTDQQCQYRWLRVLNCDLVKG [P19C] here?
Answer: 2.5

Question: Which protein stability index does the source give for FPNRTDQQCQYRWLRVLNKDLVKG [P19K] here?
Answer: 2.36

Question: With FPNRTDQQCQYRWLRVLNSDLVKG [P19S] as the variant, how does the protein stability index read?
Answer: 2.06

Question: Which protein stability index does the source give for FPNRTDQQCQYRWLRVLNADLVKG [P19A] here?
Answer: 1.81

Question: Which protein stability index does the source give for FPNRTDQQCQYRWLRVLNTDLVKG [P19T] here?
Answer: 1.67

Question: With FPNRTDQQCQYRWLRVLNGDLVKG [P19G] as the variant, how does the protein stability index read?
Answer: 2.26

Question: Which protein stability index does the source give for FPNRTDQQCQYRWLRVLNYDLVKG [P19Y] here?
Answer: 2.02

Question: With FPNRTDQQCQYRWLRVLNQDLVKG [P19Q] as the variant, how does the protein stability index read?
Answer: 1.94

Question: For FPNRTDQQCQYRWLRVLNMDLVKG [P19M], which protein stability index is on record?
Answer: 2.2

Question: For FPNRTDQQCQYRWLRVLNLDLVKG [P19L], which protein stability index is on record?
Answer: 1.76

Question: With FPNRTDQQCQYRWLRVLNVDLVKG [P19V] as the variant, how does the protein stability index read?
Answer: 1.94

Question: With FPNRTDQQCQYRWLRVLNIDLVKG [P19I] as the variant, how does the protein stability index read?
Answer: 2.11

Question: With FPNRTDQQCQYRWLRVLNDDLVKG [P19D] as the variant, how does the protein stability index read?
Answer: 1.97

Question: Which protein stability index does the source give for FPNRTDQQCQYRWLRVLNHDLVKG [P19H] here?
Answer: 2.22

Question: Which protein stability index does the source give for FPNRTDQQCQYRWLRVLNWDLVKG [P19W] here?
Answer: 1.63

Question: For FPNRTDQQCQYRWLRVLNEDLVKG [P19E], which protein stability index is on record?
Answer: 1.85

Question: With FPNRTDQQCQYRWLRVQNPDLVKG [L17Q] as the variant, how does the protein stability index read?
Answer: 2.45

Question: For FPNRTDQQCQYRWLRVINPDLVKG [L17I], which protein stability index is on record?
Answer: 2.01

Question: Which protein stability index does the source give for FPNRTDQQCQYRWLRVYNPDLVKG [L17Y] here?
Answer: 1.34

Question: For FPNRTDQQCQYRWLRVNNPDLVKG [L17N], which protein stability index is on record?
Answer: 2.28

Question: For FPNRTDQQCQYRWLRVVNPDLVKG [L17V], which protein stability index is on record?
Answer: 2.04

Question: Which protein stability index does the source give for FPNRTDQQCQYRWLRVFNPDLVKG [L17F] here?
Answer: 1.41

Question: For FPNRTDQQCQYRWLRVMNPDLVKG [L17M], which protein stability index is on record?
Answer: 1.95

Question: With FPNRTDQQCQYRWLRVSNPDLVKG [L17S] as the variant, how does the protein stability index read?
Answer: 2.78

Question: Which protein stability index does the source give for FPNRTDQQCQYRWLRVANPDLVKG [L17A] here?
Answer: 2.41

Question: For FPNRTDQQCQYRWLRVGNPDLVKG [L17G], which protein stability index is on record?
Answer: 2.45

Question: Which protein stability index does the source give for FPNRTDQQCQYRWLRVDNPDLVKG [L17D] here?
Answer: 1.91

Question: Which protein stability index does the source give for FPNRTDQQCQYRWLRVENPDLVKG [L17E] here?
Answer: 2.32

Question: Which protein stability index does the source give for FPNRTDQQCQYRWLRVKNPDLVKG [L17K] here?
Answer: 2.47

Question: For FPNRTDQQCQYRWLRVHNPDLVKG [L17H], which protein stability index is on record?
Answer: 1.6

Question: For FPNRTDQQCQYRWLRVRNPDLVKG [L17R], which protein stability index is on record?
Answer: 2.28

Question: Which protein stability index does the source give for FPNRTDQQCQYRWLRVPNPDLVKG [L17P] here?
Answer: 2.56

Question: With FPNRTDQQCQYRWLRVTNPDLVKG [L17T] as the variant, how does the protein stability index read?
Answer: 1.63

Question: For FPNRTDQQCQYRWLRVCNPDLVKG [L17C], which protein stability index is on record?
Answer: 1.79

Question: For FPNRTDQQCQYRTLRVLNPDLVKG [W13T], which protein stability index is on record?
Answer: 2.52

Question: Which protein stability index does the source give for FPNRTDQQCQYRYLRVLNPDLVKG [W13Y] here?
Answer: 2.26

Question: Which protein stability index does the source give for FPNRTDQQCQYRALRVLNPDLVKG [W13A] here?
Answer: 2.59

Question: For FPNRTDQQCQYRELRVLNPDLVKG [W13E], which protein stability index is on record?
Answer: 3.26

Question: For FPNRTDQQCQYRNLRVLNPDLVKG [W13N], which protein stability index is on record?
Answer: 2.81

Question: For FPNRTDQQCQYRQLRVLNPDLVKG [W13Q], which protein stability index is on record?
Answer: 3.1

Question: For FPNRTDQQCQYRLLRVLNPDLVKG [W13L], which protein stability index is on record?
Answer: 2.08

Question: For FPNRTDQQCQYRMLRVLNPDLVKG [W13M], which protein stability index is on record?
Answer: 2.27

Question: For FPNRTDQQCQYRHLRVLNPDLVKG [W13H], which protein stability index is on record?
Answer: 2.56

Question: With FPNRTDQQCQYRFLRVLNPDLVKG [W13F] as the variant, how does the protein stability index read?
Answer: 2.75

Question: With FPNRTDQQCQYRGLRVLNPDLVKG [W13G] as the variant, how does the protein stability index read?
Answer: 3.56

Question: Which protein stability index does the source give for FPNRTDQQCQYRPLRVLNPDLVKG [W13P] here?
Answer: 3.71

Question: With FPNRTDQQCQYRDLRVLNPDLVKG [W13D] as the variant, how does the protein stability index read?
Answer: 2.98

Question: For FPNRTDQQCQYRSLRVLNPDLVKG [W13S], which protein stability index is on record?
Answer: 3.03

Question: Which protein stability index does the source give for FPNRTDQQCQYRKLRVLNPDLVKG [W13K] here?
Answer: 3.05

Question: For FPNRTDQQCQYRVLRVLNPDLVKG [W13V], which protein stability index is on record?
Answer: 2.39

Question: For FPNRTDQQCQYRILRVLNPDLVKG [W13I], which protein stability index is on record?
Answer: 1.91

Question: Which protein stability index does the source give for FPNRTDQQCQYRCLRVLNPDLVKG [W13C] here?
Answer: 2.01

Question: For FPNRTDQQCQYRWLRSLNPDLVKG [V16S], which protein stability index is on record?
Answer: 2.2

Question: Which protein stability index does the source give for FPNRTDQQCQYRWLRFLNPDLVKG [V16F] here?
Answer: 1.81

Question: With FPNRTDQQCQYRWLRRLNPDLVKG [V16R] as the variant, how does the protein stability index read?
Answer: 1.56

Question: Which protein stability index does the source give for FPNRTDQQCQYRWLRTLNPDLVKG [V16T] here?
Answer: 2.13

Question: Which protein stability index does the source give for FPNRTDQQCQYRWLRYLNPDLVKG [V16Y] here?
Answer: 1.72

Question: For FPNRTDQQCQYRWLRILNPDLVKG [V16I], which protein stability index is on record?
Answer: 1.57

Question: With FPNRTDQQCQYRWLRHLNPDLVKG [V16H] as the variant, how does the protein stability index read?
Answer: 2.39

Question: For FPNRTDQQCQYRWLRMLNPDLVKG [V16M], which protein stability index is on record?
Answer: 1.78

Question: For FPNRTDQQCQYRWLRELNPDLVKG [V16E], which protein stability index is on record?
Answer: 2.44

Question: For FPNRTDQQCQYRWLRCLNPDLVKG [V16C], which protein stability index is on record?
Answer: 1.97

Question: For FPNRTDQQCQYRWLRNLNPDLVKG [V16N], which protein stability index is on record?
Answer: 2.05

Question: Which protein stability index does the source give for FPNRTDQQCQYRWLRGLNPDLVKG [V16G] here?
Answer: 2.12

Question: Which protein stability index does the source give for FPNRTDQQCQYRWLRALNPDLVKG [V16A] here?
Answer: 1.87

Question: Which protein stability index does the source give for FPNRTDQQCQYRWLRPLNPDLVKG [V16P] here?
Answer: 2.72

Question: With FPNRTDQQCQYRWLRWLNPDLVKG [V16W] as the variant, how does the protein stability index read?
Answer: 2.57

Question: With FPNRTDQQCQYRWLRQLNPDLVKG [V16Q] as the variant, how does the protein stability index read?
Answer: 2.46

Question: With FPNRTDQQCQYRWLRDLNPDLVKG [V16D] as the variant, how does the protein stability index read?
Answer: 2.99

Question: With FPNRTDQQCQYRWLRLLNPDLVKG [V16L] as the variant, how does the protein stability index read?
Answer: 1.77

Question: Which protein stability index does the source give for FPNRTDQQCQYRWLRKLNPDLVKG [V16K] here?
Answer: 2.02

Question: Which protein stability index does the source give for FPNRTDQQCQYRWKRVLNPDLVKG [L14K] here?
Answer: 2.88

Reference: the supplement of paper PMC10567573
